Results: US5686595, “Bcl-2-associated proteins” (La Jolla Cancer Research Foundation, dated 1997)
Values joined by “and” are separate entries in the source; they are usually repeats but may differ in a detail not shown here. Equal values may be shown once.

How the values were obtained:
[1] = target: human Bcl-2 protein produced in 32D-BCL-2 cells (human) (UniProt P10415); test: immunoprecipitation with anti-Bcl-2 monoclonal antibody 4D7 or control mouse IgG1 from 32D-BCL-2 lysate, in vitro immune complex kinase assay
[2] = target: GST protein without BAP-1 sequences (Schistosoma japonicum (Blood fluke), UniProt P08515 = GST); test: GST pull-down of 35S-labeled in vitro translated protein, SDS-PAGE and fluorography
Description: The cDNA sequences encoding Bcl-X-L, Bcl-X-S, Bcl-2 and Bcl-2β were subcloned into plasmid pSK-II (Stratagens), which contains a T7 RNA polymerass binding site. Cloning into pSK-II allows for the in vitro production of RNA, which can be translated in vitro in the presence of ^35S-methionine using reticulocyte lysates to obtain ^35S-labeled proteins. The ^35S-labeled Bcl-2-related proteins (20 µl of in vitro translation mix) were added to approximately 1 µg of GST-BAP-1 fusion protein immobilized on 10 µl of glutathione-Sepharose or with approximately 1 µg of immobilized GST control protein as described above. Following incubation at 4° C. for 1 hr, the Sepharose particles were washed 3× in a solution containing 147 mM KCl, 20 mM Hepes (pH 7.1), 1 mM MgCl_2, 0.5 mM EGTA, 1 mM PMSF, 0.05 NP-40, 1 mM DTT, 1% non-fat dried milk and 1% BSA. The Sepharose particles were collected by centrifugation and boiled in Laemmli sample buffer to release any bound ^35S-labeled Bcl-2-related proteins. The released proteins were size-fractionated by SDS-PAGE using a 10% gel and visualized by fluorography using X-ray film.

Molecule: full length endogenous Raf-1 kinase (from UniProt Q99N57) (enzyme)
- Raf-1 kinase activity in Bcl-2 immune complexes relative to control immune complexes (× (fold over control immune complexes)) [1]: 20 and 50

B1: 35S-labeled Bcl-X-S (in vitro translated) (other)
chain: MSQSNRELVVDFLSYKLSQKGYSWSQFSDVEENRTEAPEGTESEMETPSAINGNPSWHLADSPAVNGATGHSSSLDAREVIPMAAVKQALREAGDEFELRYRRAFSDLTSQLHITPGTAYQSFEQDTFVELYGNNAAAESRKGQERFNRWFLTGMTVAGVVLLGSLFSRK
modifications: 35S-methionine label
- binding result [2]: no binding

B2: 35S-labeled Bcl-2β (in vitro translated) (other)
chain: MAHAGRTGYDNREIVMKYIHYKLSQRGYEWDAGDVGAAPPGAAPAPGIFSSQPGHTPHPAASRDPVARTSPLQTPAAPGAAAGPALSPVPPVVHLTLRQAGDDFSRRYRRDFAEMSSQLHLTPFTARGRFATVVEELFRDGVNWGRIVAFFEFGGVMCVESVNREMSPLVDNIALWMTEYLNRHLHTWIQDNGGWVGALGDVSLG
modifications: 35S-methionine label
- binding result [2]: no binding
